These sequences were tested against T1, rCRISPA (rCRISP1) (Rattus norvegicus, UniProt P12020) (assay: Protease activity screen: cleavage of substrate peptides by native rCRISPA (+DANA protocol), measured by fluorescence). Conditions: 5 μM substrate peptide, 1 μg enzyme, 100 mM NaCl, 25 mM Tris-Cl, pH 7.5; fluorescence at ten minute intervals for 130 minutes; FIG. 13.
T1 construct: Native rCRISPA (rCRISP1) protein, purified with DANA present; from tissue; host or cells: rat epididymis
T1 sequence (P12020 20-246): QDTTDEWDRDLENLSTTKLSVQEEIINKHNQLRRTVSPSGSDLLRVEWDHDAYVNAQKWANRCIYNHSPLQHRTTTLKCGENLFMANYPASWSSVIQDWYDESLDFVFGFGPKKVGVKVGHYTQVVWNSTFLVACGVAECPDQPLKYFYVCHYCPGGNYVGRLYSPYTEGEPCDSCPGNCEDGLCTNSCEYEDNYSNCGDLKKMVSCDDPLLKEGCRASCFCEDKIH
Format: biochemical
Description: FIG. 13 is a graph showing rCRISPA (rCRISP1) protease activity (assay conditions: 5 μM substrate peptide, 1 μg enzyme, 100 mM NaCl, 25 mM Tris-Cl, pH 7.5). A. Cleaved peptides A04 (RGARARLG), N08 (RKRRAPLA), N12 (AKRAASQI), N17 (RKRRAVLT), B22 (APQRFGKK), B17 (RQRYGKRS), B23 (RVKRYRQS), H03 (RNKRAVQG). B. Cleaved peptides B20 (PQRFGRNT), C16 (RVLGLKAH), J21 (LRNRAQSG), H07 (RVKRQVRS), H11 (RRLLRAIP), N05 (RARRELAP), H01 (RKKRSTKK), O22 (GGVRGPRV), O16 (AATRRQAV), O23 (KNVAMQKG), G24 (RRKRSTRE), A09 (RMRRYADA), M02 (EKQRIIGG), H17 (NGLRADPM). C. Uncleaved peptides L16 (KTPRWGG), N10 (FYRADQPR), B11 (AAGVAPLS), J03 (PQLHSTGG), C01 (GPQGLLGA), K11 (VIPRSGGS), M07 (GLQRALEI), A01 (WQGGRRKF), H02 (RAKRSVHF), A10 (SAARPAPP), M16 (RSRREADL), A05 (SYRKVLGQ), M18 (VHRDMAAR), C23 (RDAQAHPG), M09 (GSQHIRAE), E19 (RLGREGVQ), D06 (ALAEAMKK).
Native rCRISPA (rCRISP1) protein, purified with DANA present (see Example 4), was screened for the ability to cleave 360 unique peptides using the commercially available peptide substrate set (catalog # PrSS-360-75, JPT Peptide Technologies, Springfield, Va.). […] The substrate peptides cleaved by rCRISPA in this assay are represented by blue and green traces noted in FIG. 13. Peptides that were not cleaved by rCRISPA are also noted in FIG. 13.

cleavage of substrate peptide by rCRISPA (rCRISP1) protease activity	Sequence
Uncleaved	AAGVAPLS [B11, substrate peptide of the commercial peptide substrate set PrSS-360-75, JPT Peptide Technologies]
Cleaved	RVLGLKAH [C16, substrate peptide of the commercial peptide substrate set PrSS-360-75, JPT Peptide Technologies]
Uncleaved	RSRREADL [M16, substrate peptide of the commercial peptide substrate set PrSS-360-75, JPT Peptide Technologies]
Uncleaved	ALAEAMKK [D06, substrate peptide of the commercial peptide substrate set PrSS-360-75, JPT Peptide Technologies]
Cleaved	RQRYGKRS [B17, substrate peptide of the commercial peptide substrate set PrSS-360-75, JPT Peptide Technologies]
Cleaved	RNKRAVQG [H03, substrate peptide of the commercial peptide substrate set PrSS-360-75, JPT Peptide Technologies]

— patent US20060275803A1, “Rat and mouse members of the CRISP family of genes” (Wyeth, priority 2005, published 2006)
